Measured values published in PMC12203670.
“And” between values parts separate entries of the source, which are not always exact repeats. Equal values may be shown once.

Molecular target: PKM2 (pyruvate kinase M2), endogenous in mouse heart (mouse (endogenous in heart)) (UniProt P52480)
Test: cross-linking; cross-linking of cardiac PKM2, Western blot of monomer, dimer and tetramer; hearts of Ctrl and cKO mice after 3-h reperfusion, with TEPP-46 or vehicle, or with Ad-Mtx2

Chain of PKM2 (pyruvate kinase M2), endogenous in mouse heart, P52480 1-531 (enzyme; other documents disagree on this pair) (P52480 whole entry): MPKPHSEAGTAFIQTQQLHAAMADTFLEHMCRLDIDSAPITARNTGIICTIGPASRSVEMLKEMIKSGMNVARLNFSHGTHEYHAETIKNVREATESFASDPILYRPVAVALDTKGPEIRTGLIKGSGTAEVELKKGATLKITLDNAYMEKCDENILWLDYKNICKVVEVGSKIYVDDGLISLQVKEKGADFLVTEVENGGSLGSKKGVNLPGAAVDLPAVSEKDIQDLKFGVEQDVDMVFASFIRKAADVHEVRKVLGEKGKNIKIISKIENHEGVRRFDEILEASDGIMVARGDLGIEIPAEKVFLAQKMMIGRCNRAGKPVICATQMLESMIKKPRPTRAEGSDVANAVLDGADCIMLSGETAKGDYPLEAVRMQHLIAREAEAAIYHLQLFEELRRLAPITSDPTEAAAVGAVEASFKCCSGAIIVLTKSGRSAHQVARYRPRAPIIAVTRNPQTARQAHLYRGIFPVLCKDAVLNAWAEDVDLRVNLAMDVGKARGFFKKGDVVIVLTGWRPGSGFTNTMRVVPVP

stoichiometry N: 4 and 2
Substance: PKM2 (pyruvate kinase M2), endogenous in mouse heart, P52480 1-531 (enzyme; other documents disagree on this pair)
